This passage reports abundance fitness results from the Human Domainome abundance scans (Beltran et al. 2025).

± gives the uncertainty stated by the source.

The labels stand for the following.
B1: Kinesin-like protein KIF16B, residues 1213 to 1273; numbered along this chain, Q96L93 (parent)
chain: ETWTVFRRYSRFREMHKTLKLKYAELAALEFPPKKLFGNKDERVIAERRSHLEKYLRDFFS

The variants in this data set derive from B1. The data set can be described thus: abundance fitness (aPCA) (normalised: wild type 0, dead -1); higher = more abundant; growth selection in yeast, the domain comes from the species named. The note with it: Homo sapiens.
Turning to ETWTVFRRYSRFREMHKTLKLKYAELAALEFPPKKLFGNKDERVIAERASHLEKYLRDFFS, the abundance fitness is -0.166 ± 0.084. Under ETWTVFRRYSRFREMHKTLKLKYAELAALEFPPKKLFGNKDERVIAERISHLEKYLRDFFS stands 0.367 ± 0.18; under ETWTVFRRYSRFREMHKTLKLKYAELAALEFPPKKLFGNKDERVIAERYSHLEKYLRDFFS, -0.68 ± 0.29; under ETWTVFRRYSRFREMHKTLKLKYAELAALEFPPKKLFGNKDERVIAERQSHLEKYLRDFFS, -0.201 ± 0.14. Regarding ETWTVFRRYSRFREMHKTLKLKYAELAALEFPPKKLFGNKDERVIAERCSHLEKYLRDFFS, the abundance fitness was found to be 0.247 ± 0.17. Next, ETWTVFRRYSRFREMHKTLKLKYAELAALEFPPKKLFGNKDERVIAERPSHLEKYLRDFFS: -0.273 ± 0.13; ETWTVFRRYSRFREMHKTLKLKYAELAALEFPPKKLFGNKDERVIAERTSHLEKYLRDFFS: -0.286 ± 0.15. Next, ETWTVFRRYSRFREMHKTLKLKYAELAALEFPPKKLFGNKDERVIAERLSHLEKYLRDFFS: 0.279 ± 0.073; ETWTVFRRYSRFREMHKTLKLKYAELAALEFPPKKLFGNKDERVIAERKSHLEKYLRDFFS: 0.504 ± 0.21; ETWTVFRRYSRFREMHKTLKLKYAELAALEFPPKKLFGNKDERVIAERWSHLEKYLRDFFS: -0.064 ± 0.095. Under ETWTVFRRYSRFREMHKTLKLKYAELAALEFPPKKLFGNKDERVIAERSSHLEKYLRDFFS stands -0.145 ± 0.058; under ETWTVFRRYSRFREMHKTLKLKYAELAALEFPPKKLFGNKDERVIAERVSHLEKYLRDFFS, -0.41 ± 0.11. Consider ETWTVFRRYSRFREMHKTLKLKYAELAALEFPPKKLFGNKDERVIAERGSHLEKYLRDFFS, for which the abundance fitness was -0.01 ± 0.052. Next, ETWTVFRRYSRFREMHKTLKLKYAELAALEFPPKKLFGNKDERVIAERMSHLEKYLRDFFS: -0.477 ± 0.14.

ETWTVFRRYSRFREMHKTLKLKYAELAALEFPPKKLFGNKDERVYAERRSHLEKYLRDFFS: the abundance fitness is -0.274 ± 0.099.

For ETWTVFRRYSRFREMHKTLKLKYAELAALEFPPKKLFGNKDERVIACRRSHLEKYLRDFFS, the abundance fitness came out at 0.038 ± 0.09. Next, ETWTVFRRYSRFREMHKTLKLKYAELAALEFPPKKLFGNKDERVIAKRRSHLEKYLRDFFS: -0.011 ± 0.16. Under ETWTVFRRYSRFREMHKTLKLKYAELAALEFPPKKLFGNKDERVIAMRRSHLEKYLRDFFS stands -0.053 ± 0.09.

As to ETWTVFRRYSRFREMHKTLKLKYAELAALEFPPKKLFGNKDERVIAFRRSHLEKYLRDFFS, the abundance fitness amounted to 0.117 ± 0.11. As for ETWTVFRRYSRFREMHKTLKLKYAELAALEFPPKKLFGNKDERVIAHRRSHLEKYLRDFFS, the abundance fitness was found to be 0.129 ± 0.2. Turning to ETWTVFRRYSRFREMHKTLKLKYAELAALEFPPKKLFGNKDERVIADRRSHLEKYLRDFFS, the abundance fitness was determined as 0.183 ± 0.079. Next, ETWTVFRRYSRFREMHKTLKLKYAELAALEFPPKKLFGNKDERVIAWRRSHLEKYLRDFFS: 0.014 ± 0.069; ETWTVFRRYSRFREMHKTLKLKYAELAALEFPPKKLFGNKDERVIAGRRSHLEKYLRDFFS: 0.243 ± 0.051. On to ETWTVFRRYSRFREMHKTLKLKYAELAALEFPPKKLFGNKDERVIAIRRSHLEKYLRDFFS, for which the abundance fitness was -0.2 ± 0.29. Under ETWTVFRRYSRFREMHKTLKLKYAELAALEFPPKKLFGNKDERVIASRRSHLEKYLRDFFS stands 0.091 ± 0.05. For the variant ETWTVFRRYSRFREMHKTLKLKYAELAALEFPPKKLFGNKDERVIAARRSHLEKYLRDFFS, the abundance fitness was -0.307 ± 0.14. As for ETWTVFRRYSRFREMHKTLKLKYAELAALEFPPKKLFGNKDERVIATRRSHLEKYLRDFFS, the abundance fitness worked out at 0.132 ± 0.087.

Consider ETWTVFRRYSRFREMHKTLKLKYAELAALEFPPKKLFGNKDERVIANRRSHLEKYLRDFFS, for which the abundance fitness is 0.099 ± 0.12. As for ETWTVFRRYSRFREMHKTLKLKYAELAALEFPPKKLFGNKDERVIARRRSHLEKYLRDFFS, the abundance fitness turned out to be 0.099 ± 0.045. As for ETWTVFRRYSRFREMHKTLKLKYAELAALEFPPKKLFGNKDERVIAQRRSHLEKYLRDFFS, the abundance fitness is -0.175 ± 0.085. Next, ETWTVFRRYSRFREMHKTLKLKYAELAALEFPPKKLFGNKDERVIAYRRSHLEKYLRDFFS: -0.223 ± 0.093.

For ETWTVFRRYSRFREMHKTLKLKYAELAALEFPPKKLFGNKDERVIALRRSHLEKYLRDFFS, the abundance fitness was -0.274 ± 0.068. Next, ETWTVFRRYSRFREMHKTLKLKYAELAALEFPPKKLFGNKDERVIAVRRSHLEKYLRDFFS: -0.173 ± 0.054. As to ETWTVFRRYSRFREMHKTLKLKYAELAALEFPPKKLFGNKDERVIAPRRSHLEKYLRDFFS, the abundance fitness came to 0.118 ± 0.072. Under ETWTVFRRYSRFREMHKTLKLKYAELAALEFPPKKLFGNKDERVIMERRSHLEKYLRDFFS stands -0.073 ± 0.068; under ETWTVFRRYSRFREMHKTLKLKYAELAALEFPPKKLFGNKDERVIQERRSHLEKYLRDFFS, -0.03 ± 0.13; under ETWTVFRRYSRFREMHKTLKLKYAELAALEFPPKKLFGNKDERVIDERRSHLEKYLRDFFS, -0.01 ± 0.092. Next, ETWTVFRRYSRFREMHKTLKLKYAELAALEFPPKKLFGNKDERVIPERRSHLEKYLRDFFS: 0.256 ± 0.095; ETWTVFRRYSRFREMHKTLKLKYAELAALEFPPKKLFGNKDERVIYERRSHLEKYLRDFFS: -0.262 ± 0.13; ETWTVFRRYSRFREMHKTLKLKYAELAALEFPPKKLFGNKDERVICERRSHLEKYLRDFFS: 0.093 ± 0.22.

Take ETWTVFRRYSRFREMHKTLKLKYAELAALEFPPKKLFGNKDERVILERRSHLEKYLRDFFS: the abundance fitness is -0.324 ± 0.09. As to ETWTVFRRYSRFREMHKTLKLKYAELAALEFPPKKLFGNKDERVISERRSHLEKYLRDFFS, the abundance fitness came out at 0.147 ± 0.074. Under ETWTVFRRYSRFREMHKTLKLKYAELAALEFPPKKLFGNKDERVIFERRSHLEKYLRDFFS stands -0.27 ± 0.18.
